B1: LINE1-full (parent)
chain: UACGUAGGUGGUUUUCCCCUGAUAGUGCUAAGGGGGCCUGGAAGUUUGGACUGGGCAGAGCUCAACACAGCGUGGCAAAGUGGCUGUGGCUAGACUGCCUCUCUGGAUUCCUCGUCACUCAGCAGGGCAUCUCUGAGAGAAAUGCC

Here are results for 167 variants from the RNAGym collection of RNA variant scans (doi:10.7554/elife.90254).

Variants of B1 are the subject of this series. Description: self-cleavage, relative activity (ratio to wild type); higher = more cleavage; in vitro, sequencing; the parent is a self-cleaving ribozyme.
A69U C71U: the self-cleavage was found to be 0.02. With C71A G83U the figure was 0.58. Take G72U U143C: the self-cleavage was found to be 1.02. Under A69U G80A stands 0.3; under A69U G80U, 0.03; under C71A U130A, 0.17. Under A69U A140G stands 0.04; under C71U C76U, 1.15. Under G72A A117U stands 1.54; under C71A G122A, 0.12. Consider G72A U85C, for which the self-cleavage was found to be 0.08. With A69U U143C the figure was 0.07; with A69U U143A, 0.04; with A69G U109C, 0.29.

Take G70A A136U: the self-cleavage stood at 0.16. Under A69G U87G stands 0.48; under C71U C90A, 0.04; under C71U A77G, 0.86.

With G70C U108C, the self-cleavage is 0.29. Under A69U A138G stands 0.07; under A69G U100A, 0.17; under A69G U100C, 0.98. Under G72A A77U stands 1.44; under G72U A142G, 0. With A69U U109C the figure was 0.06; with A69U U109G, 0; with C71U A140G, 0.9. Regarding C71A C145U, the self-cleavage is 0.18.

On to G72C C90U, for which the self-cleavage stood at 0.03. Under A69U U112A stands 0.04.

With A69U U112C, the self-cleavage is 0.06. With G72A A78G the figure was 1.14. Under G72A A78U stands 1.81; under C71U U96A, 0.04. On to C71U U96C, for which the self-cleavage stood at 0.05. C71G U81C: the self-cleavage was found to be 0.27. Under C71G U81A stands 0.28. Under G72U U73C stands 0.9; under C71A U132C, 0.15. Take G72U A121U: the self-cleavage is 1.08. With G72U A121G the figure was 1.32; with A69G U143C, 0.5; with A69G U143A, 0.31.

C71U A117U: the self-cleavage was determined as 0.98. With C71A A129G the figure was 0.23; with U73A A117U, 1.81; with G72A U143A, 1.85. Under C71U A92G stands 0.06. With G72C U108G the figure was 0.96; with G72U U91A, 0.49. For the variant G72U U91C, the self-cleavage was 0.49. Under G70A A94G stands 0.07.

Consider C71A A138G, for which the self-cleavage was found to be 0.33. Under G70A U130A stands 0.15; under A69G U108C, 0.68; under G70U A92G, 0.08.

Consider A69U A92G, for which the self-cleavage was 0.03.

Take C71U A79U: the self-cleavage was 0.74. Under C71U C99G stands 0.12; under U73A A136G, 1.61; under A69G U119A, 0.65. Under A69G U119C stands 0.64.

As for G72A U134A, the self-cleavage came to 1.15. With U73A A107G the figure was 2.03. For the variant C71U U87C, the self-cleavage was found to be 0.04.

For A69U U85C, the self-cleavage is 0. With G70U U112C the figure was 0.06. Under G70U U112A stands 0.05; under A69U U81A, 0.01; under A69U U91A, 0.05.

Take A69U U91C: the self-cleavage was 0.06. With G72U U85G the figure was 0.1. With G72A G88A the figure was 0.03.

Regarding A69U G126A, the self-cleavage was 0.05.

Consider G72A U87C, for which the self-cleavage was 0.25. Under G72A U104A stands 0.93. Under C71A C128U stands 0.18; under U73A A78U, 1.94. With U73A A78G the figure was 0.34; with U73A A78C, 2.67; with G70U U91C, 0.03. In the case of A69U A94G, the self-cleavage was determined as 0.02. With A69U A107U the figure was 0.04.

In the case of A69U A107G, the self-cleavage was found to be 0.08. Turning to A69U A77U, the self-cleavage was determined as 0.06. Under A69U A77G stands 0.07; under G70C G144A, 0.15. For the variant A69U U96C, the self-cleavage came out at 0.03. With C71A U115A the figure was 0.16. As to G72A U96A, the self-cleavage worked out at 0.04. In the case of G72U U81C, the self-cleavage is 1.28. Regarding C71U G75A, the self-cleavage was 0.59. Under A69G U91C stands 0. Under C71U A138U stands 1.04. Take C71U A78G: the self-cleavage is 0.41. Under A69U C116A stands 0.05. With G70U U102A the figure was 0.11; with G72U A129G, 1.08; with C71U A121U, 0.93. With G72A U115C the figure was 0.9; with A69U C118U, 0.01.

Consider U73A A140U, for which the self-cleavage was determined as 1.88. Under U73A A94C stands 0.05; under U73A A94G, 0.35.

As for A69U U104C, the self-cleavage stood at 0.05.

With C71G U112C, the self-cleavage was 0.37. With C71A U108C the figure was 0.43; with A69U A142G, 0.06; with G72A A94U, 0.06. With A69U A117G the figure was 0.08; with G70U, 0.05. In the case of G70C, the self-cleavage was 0.15. In the case of G70A, the self-cleavage turned out to be 0.1.

As to G72A U130C, the self-cleavage was 1.85. Under G72U U134C stands 1.24. With G70A G80A the figure was 0.48; with G70A U100A, 0.05; with G72A C90G, 0.03. With C71U C111U the figure was 0.82; with G70A A138G, 0.21. Turning to A69U C95A, the self-cleavage was 0.02.

For the variant G70A U115C, the self-cleavage was 0.16. With C71G A77G the figure was 0.4; with G70C A142G, 0.14; with A69U A79G, 0.05. With U73A A124U the figure was 1.4; with U73A A92G, 0.13. Under U73A A92U stands 0.8; under G70C U102A, 0.07. Consider G72A U102C, for which the self-cleavage worked out at 0.46.

As for G72A G122A, the self-cleavage came out at 1.6. With G72U U87A the figure was 0.03. As for G70U G97A, the self-cleavage was 0.01.

For the variant A69U G82A, the self-cleavage was 0.14. In the case of U73A A79U, the self-cleavage is 2.48.

On to G70A A141G, for which the self-cleavage came out at 0.17. With C71U U130C the figure was 1; with A69U A124U, 0.09; with A69U A124G, 0.05. With G70C C90A the figure was 0.02; with A69U G97C, 0. As for G72C, the self-cleavage was found to be 1.18. Under G72A stands 1.3. As to G72U, the self-cleavage came to 0.9.

In the case of C71G A140U, the self-cleavage was determined as 0.53. Under U73A A141G stands 1.74. In the case of A69U A129G, the self-cleavage was 0.07. Under A69U A129U stands 0.06. Under A69U A141U stands 0.05; under G70U U119C, 0.07; under G70U U119A, 0.03.

Consider G72C A136G, for which the self-cleavage amounted to 1.41. Under A69U U102C stands 0.06; under C71U U115G, 1.23; under C71U U115C, 1.12. With G72A G137A the figure was 0.46; with G70A A79G, 0.1. With U73A A77G the figure was 2.29; with A69U U119C, 0.06. Turning to A69U U119A, the self-cleavage turned out to be 0.03.

As for C71U U132C, the self-cleavage was determined as 1.05. With A69U U130G the figure was 0.09; with A69U G88A, 0.01. For the variant A69U U108C, the self-cleavage worked out at 0.06. With G72U U115C the figure was 1.31. As for C71U C120U, the self-cleavage was 2.76. Under C71U U143C stands 0.64.
